T1: GRIP1_3, Q9Y3R0
T1 sequence (Q9Y3R0 247-346, limits assumed, looked up): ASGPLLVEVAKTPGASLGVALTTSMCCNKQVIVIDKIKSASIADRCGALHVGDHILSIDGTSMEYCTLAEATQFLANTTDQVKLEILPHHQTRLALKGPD

T2: GRIP1_7, Q9Y3R0
T2 sequence (Q9Y3R0 999-1096, limits assumed, looked up): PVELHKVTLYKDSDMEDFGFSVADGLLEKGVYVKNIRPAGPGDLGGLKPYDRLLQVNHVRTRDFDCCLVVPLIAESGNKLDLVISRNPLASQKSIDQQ

T3: LRRC7, Q96NW7
T3 sequence (Q96NW7 1440-1537, limits assumed, looked up): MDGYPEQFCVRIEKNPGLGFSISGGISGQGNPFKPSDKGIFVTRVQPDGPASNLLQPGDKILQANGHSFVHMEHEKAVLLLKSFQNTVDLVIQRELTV

T4: MPDZ_5, O75970
T4 sequence (O75970 695-796, limits assumed, looked up): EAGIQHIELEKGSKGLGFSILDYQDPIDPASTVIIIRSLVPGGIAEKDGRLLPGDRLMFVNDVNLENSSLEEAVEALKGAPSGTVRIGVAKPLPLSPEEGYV

T5: MPP7, Q5T2T1
T5 sequence (Q5T2T1 134-230, limits assumed, looked up): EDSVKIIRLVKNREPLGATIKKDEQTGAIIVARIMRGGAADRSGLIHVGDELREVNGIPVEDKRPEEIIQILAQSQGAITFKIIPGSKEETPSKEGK

T6: NHERF3_3, Q5T2W1
T6 sequence (Q5T2W1 238-333, limits assumed, looked up): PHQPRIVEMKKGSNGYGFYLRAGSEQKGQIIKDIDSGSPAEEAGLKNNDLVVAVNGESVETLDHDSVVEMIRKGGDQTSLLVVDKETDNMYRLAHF

T7: NHERF3_4, Q5T2W1
T7 sequence (Q5T2W1 373-468, limits assumed, looked up): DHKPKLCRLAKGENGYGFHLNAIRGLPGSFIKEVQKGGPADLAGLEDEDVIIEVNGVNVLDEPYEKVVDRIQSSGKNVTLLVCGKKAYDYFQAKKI

T8: PCLO, Q9Y6V0
T8 sequence (Q9Y6V0 4491-4600, limits assumed, looked up): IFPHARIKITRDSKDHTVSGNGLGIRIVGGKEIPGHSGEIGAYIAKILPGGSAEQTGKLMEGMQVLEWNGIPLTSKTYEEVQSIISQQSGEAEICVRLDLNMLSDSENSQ

T9: RHPN1, Q8TCX5
T9 sequence (Q8TCX5 508-602, limits assumed, looked up): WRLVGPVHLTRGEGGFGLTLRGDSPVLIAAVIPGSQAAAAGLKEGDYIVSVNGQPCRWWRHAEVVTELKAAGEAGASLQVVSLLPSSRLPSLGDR

T10: SNTA1, Q13424
T10 sequence (Q13424 82-180, limits assumed, looked up): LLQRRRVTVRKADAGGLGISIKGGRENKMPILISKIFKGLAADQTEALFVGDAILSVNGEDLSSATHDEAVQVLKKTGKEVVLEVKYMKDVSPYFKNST

T11: SYNJ2BP, P57105
T11 sequence (P57105 8-110, limits assumed, looked up): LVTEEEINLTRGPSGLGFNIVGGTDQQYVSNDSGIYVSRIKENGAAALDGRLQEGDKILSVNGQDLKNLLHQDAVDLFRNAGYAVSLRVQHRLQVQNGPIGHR

T12: TX1BP3, O14907
T12 sequence (O14907 10-122, limits assumed, looked up): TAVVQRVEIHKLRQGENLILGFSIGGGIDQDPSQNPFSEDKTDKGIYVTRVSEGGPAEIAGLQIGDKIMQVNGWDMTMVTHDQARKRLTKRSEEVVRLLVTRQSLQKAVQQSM


How the values were obtained:
Assay in all cases: holdup assay
Set-up in all cases: key: below the threshold = too weak to quantify, mostly under pKd 3.1 to 4
Conditions in all cases: plain residues with an end cap or a label only (N-terminal biotin on a linker: ado-ado)
DLG1_2, Q12959 = target: DLG1_2, Q12959
Chain of DLG1_2, Q12959 (Q12959 314-412): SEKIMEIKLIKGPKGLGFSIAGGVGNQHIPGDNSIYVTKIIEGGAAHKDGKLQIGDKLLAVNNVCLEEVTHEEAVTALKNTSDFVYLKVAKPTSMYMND

DLG2_2, Q15700 = target: DLG2_2, Q15700
DLG2_3, Q15700 = target: DLG2_3, Q15700
DLG5_1, Q8TDM6 = target: DLG5_1, Q8TDM6
Chain of DLG5_1, Q8TDM6 (Q8TDM6 617-713): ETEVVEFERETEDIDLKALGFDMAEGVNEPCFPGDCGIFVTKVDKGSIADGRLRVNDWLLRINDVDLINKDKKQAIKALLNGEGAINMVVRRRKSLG

GRID2IP_2, A4D2P6 = target: GRID2IP_2, A4D2P6
Chain of GRID2IP_2, A4D2P6 (A4D2P6 272-370): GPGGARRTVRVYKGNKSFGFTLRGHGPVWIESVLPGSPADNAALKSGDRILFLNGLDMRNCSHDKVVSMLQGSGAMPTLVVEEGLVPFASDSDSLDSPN

GRIP1_3, Q9Y3R0 = target: T1, GRIP1_3, Q9Y3R0
GRIP1_7, Q9Y3R0 = target: T2, GRIP1_7, Q9Y3R0
GRIP2_7, Q9C0E4 = target: GRIP2_7, Q9C0E4
Chain of GRIP2_7, Q9C0E4 (Q9C0E4 934-1023): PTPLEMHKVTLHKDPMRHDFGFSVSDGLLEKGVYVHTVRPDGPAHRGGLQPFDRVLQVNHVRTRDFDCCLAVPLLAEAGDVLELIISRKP

HTRA1, Q92743 = target: HTRA1, Q92743
Chain of HTRA1, Q92743 (Q92743 360-477): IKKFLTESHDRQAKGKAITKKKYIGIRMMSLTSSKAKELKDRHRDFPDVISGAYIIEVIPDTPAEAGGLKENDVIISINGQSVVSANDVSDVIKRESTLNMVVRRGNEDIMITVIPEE

Inadl_5, Q8NI35 = target: Inadl_5, Q8NI35
Chain of Inadl_5, Q8NI35 (Q8NI35 673-780): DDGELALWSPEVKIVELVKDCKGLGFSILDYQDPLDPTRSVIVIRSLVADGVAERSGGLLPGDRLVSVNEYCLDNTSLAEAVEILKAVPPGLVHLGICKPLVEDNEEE

LIMK2, P53671 = target: LIMK2, P53671
Chain of LIMK2, P53671 (P53671 143-248): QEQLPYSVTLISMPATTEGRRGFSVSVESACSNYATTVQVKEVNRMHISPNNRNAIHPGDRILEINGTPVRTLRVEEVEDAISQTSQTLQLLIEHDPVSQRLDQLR

LRRC7, Q96NW7 = target: T3, LRRC7, Q96NW7
MAGI2_3, Q86UL8 = target: MAGI2_3, Q86UL8
Chain of MAGI2_3, Q86UL8 (Q86UL8 600-682): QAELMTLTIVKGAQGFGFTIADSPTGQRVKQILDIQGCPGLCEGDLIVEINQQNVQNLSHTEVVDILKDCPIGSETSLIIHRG

MAGI2_4, Q86UL8 = target: MAGI2_4, Q86UL8
Chain of MAGI2_4, Q86UL8 (Q86UL8 772-865): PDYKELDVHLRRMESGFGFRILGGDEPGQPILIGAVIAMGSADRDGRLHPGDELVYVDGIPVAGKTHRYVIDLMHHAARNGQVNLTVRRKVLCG

MAST1, Q9Y2H9 = target: MAST1, Q9Y2H9
Chain of MAST1, Q9Y2H9 (Q9Y2H9 962-1065): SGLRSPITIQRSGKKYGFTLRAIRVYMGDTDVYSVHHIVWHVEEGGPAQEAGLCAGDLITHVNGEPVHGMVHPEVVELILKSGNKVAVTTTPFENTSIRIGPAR

MPDZ_5, O75970 = target: T4, MPDZ_5, O75970
MPP7, Q5T2T1 = target: T5, MPP7, Q5T2T1
NHERF3_3, Q5T2W1 = target: T6, NHERF3_3, Q5T2W1
NHERF3_4, Q5T2W1 = target: T7, NHERF3_4, Q5T2W1
PCLO, Q9Y6V0 = target: T8, PCLO, Q9Y6V0
PDZRN4_1, Q6ZMN7 = target: PDZRN4_1, Q6ZMN7
Chain of PDZRN4_1, Q6ZMN7 (Q6ZMN7 213-318): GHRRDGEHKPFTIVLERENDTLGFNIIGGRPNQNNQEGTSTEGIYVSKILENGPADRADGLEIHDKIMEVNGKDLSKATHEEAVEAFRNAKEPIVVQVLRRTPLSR

RHPN1, Q8TCX5 = target: T9, RHPN1, Q8TCX5
SNTA1, Q13424 = target: T10, SNTA1, Q13424
SYNJ2BP, P57105 = target: T11, SYNJ2BP, P57105
TX1BP3, O14907 = target: T12, TX1BP3, O14907

Binder | pKd (DLG1_2, Q12959) | pKd (DLG2_2, Q15700) | pKd (DLG2_3, Q15700) | pKd (DLG5_1, Q8TDM6) | pKd (GRID2IP_2, A4D2P6) | pKd (GRIP1_3, Q9Y3R0) | pKd (GRIP1_7, Q9Y3R0) | pKd (GRIP2_7, Q9C0E4) | pKd (HTRA1, Q92743) | pKd (Inadl_5, Q8NI35) | pKd (LIMK2, P53671) | pKd (LRRC7, Q96NW7) | pKd (MAGI2_3, Q86UL8) | pKd (MAGI2_4, Q86UL8) | pKd (MAST1, Q9Y2H9) | pKd (MPDZ_5, O75970) | pKd (MPP7, Q5T2T1) | pKd (NHERF3_3, Q5T2W1) | pKd (NHERF3_4, Q5T2W1) | pKd (PCLO, Q9Y6V0) | further results
LGRSTPQSEV [DGKH, Q86XP1] | 4.01 | 3.58 | below the threshold | below the threshold | 4.16 | below the threshold | below the threshold | below the threshold | below the threshold | below the threshold | below the threshold | below the threshold | below the threshold | 3.52 | 4.19 | below the threshold | below the threshold | below the threshold | below the threshold | below the threshold | pKd (PDZRN4_1, Q6ZMN7): below the threshold; pKd (RHPN1, Q8TCX5): 4.49; pKd (SNTA1, Q13424): 3.8; pKd (SYNJ2BP, P57105): 4.49; pKd (TX1BP3, O14907): 4.03
YNNCLEILRV [DCAF7, P61962] | below the threshold | below the threshold | below the threshold | below the threshold | below the threshold | below the threshold | below the threshold | below the threshold | 5.22 | below the threshold | below the threshold | below the threshold | below the threshold | below the threshold | 4.08 | below the threshold | below the threshold | below the threshold | below the threshold | below the threshold | pKd (PDZRN4_1, Q6ZMN7): below the threshold; pKd (RHPN1, Q8TCX5): below the threshold; pKd (SNTA1, Q13424): below the threshold; pKd (SYNJ2BP, P57105): below the threshold; pKd (TX1BP3, O14907): below the threshold
RRLPGKETMA [GRIK2, Q13002] | 3.66 | below the threshold | 3.8 | below the threshold | below the threshold | below the threshold | below the threshold | below the threshold | below the threshold | below the threshold | below the threshold | below the threshold | below the threshold | below the threshold | below the threshold | below the threshold | below the threshold | below the threshold | below the threshold | below the threshold | pKd (PDZRN4_1, Q6ZMN7): below the threshold; pKd (RHPN1, Q8TCX5): below the threshold; pKd (SNTA1, Q13424): below the threshold; pKd (SYNJ2BP, P57105): below the threshold; pKd (TX1BP3, O14907): below the threshold
